Test results as given in patent publication US20230279126A1 (published 2023).
Residue numbers refer to the chain shown, from its start.

B1: mIL12Rb1_VHH3 (VHH)
VHH: QVQLQESGGGSVQAGGSLRLSCVASGYSYCGYDMMWYRQAPGKEREFVALITSDYSIRYEDSVEGRFSISRDNAKNTGYLLMSNLTPADTAIYYCKTSTAARESSWCRSRYRVASWGQGTQVTVSS
notes: Phagemid clone with his-tag, periplasmic extract
B2: hIL12Rb1_VHH8 (VHH)
VHH: B1 VHH
notes: as for B1
B3: hIL12Rb1_VHH3 (VHH)
VHH: B1 VHH
notes: as for B1
B4: mIL12Rb1_VHH13 (VHH)
VHH: B1 VHH with S105G
notes: as for B1
B5: hIL12Rb1_VHH9 (VHH)
VHH: B1 VHH with S105G
notes: as for B1
B6: hIL12Rb1_VHH11 (VHH)
VHH: QVQLQESGGGSVQAGGSLRLSCAVSGYDYCGYDVRWYRQAPGKEREFVSGIDSDGSTSYADSVKGRFTISQDNAENTSYLHMFSLKPEDTAMYYCKTESPAGESAWCRNFRGMDYWGKGTQVTVSS
notes: as for B1
B7: mIL12Rb1_VHH2 (VHH)
VHH: B6 VHH
notes: as for B1
B8: mIL12Rb1_VHH7 (VHH)
VHH: B6 VHH with Q39R
notes: as for B1
B9: mIL12Rb1_VHH16 (VHH)
VHH: B6 VHH with D52N, S99G
notes: as for B1
B10: mIL12Rb1_VHH21 (VHH)
VHH: B6 VHH with Q39R
notes: as for B1
B11: hIL12Rb1_VHH22 (VHH)
VHH: QVQLQESGGGSVQAGGSLRLSCTASGYTYSSAFMAWFRQAPGKEREGVAAIYTRDGGTVYADSVKGRFTISQDNAKNTLYLQMNSLKAEDTAMYYCAAKIPQPGRASLLDSQTYDYWGQGTQVTVSS
notes: as for B1
B12: mIL12Rb1_VHH1 (VHH)
VHH: B11 VHH
notes: as for B1
B13: hIL12Rb1_VHH16 (VHH)
VHH: B11 VHH with I51M, M83I, N84H, S85T
notes: as for B1
B14: hIL12Rb1_VHH21 (VHH)
VHH: B11 VHH with I51M, A88T
notes: as for B1
B15: hIL12Rb1_VHH12 (VHH)
VHH: B11 VHH with A88P, I100M
notes: as for B1
B16: hIL12Rb1_VHH2 (VHH)
VHH: B11 VHH with T78I
notes: as for B1
B17: mIL12Rb1_VHH22 (VHH)
VHH: B11 VHH with T78I
notes: as for B1
B18: mIL12Rb1_VHH18 (VHH)
VHH: B11 VHH with I51M, A88T
notes: as for B1
B19: mIL12Rb1_VHH23 (VHH)
VHH: B11 VHH with A88P, I100M
notes: as for B1
B20: mIL12Rb1_VHH6 (VHH)
VHH: B11 VHH with G57S, T58P, V64L, Y80H, A88P, Q102E, A106I, Q119H
notes: as for B1
B21: hIL12Rb1_VHH20 (VHH)
VHH: B11 VHH with G57S, T58P, V64L, Y80H, A88P, Q102E, A106I, Q119H
notes: as for B1
B22: mIL12Rb1_VHH17 (VHH)
VHH: B11 VHH with I51M, M83I, N84H, S85T
notes: as for B1
B23: hIL12Rb1_VHH6 (VHH)
VHH: QVQLQESGGGSVQAGGSLRLSCAASRYTYTNNFMAWFRQAPGKEREGVAAIYTGDGYAYYFYSVKGRFTISQDNDENMLYLQMNSLKPEDTAMYYCAAMERRIGTRRMTENAEYKYWGQGTQVTVSS
notes: as for B1
B24: mIL12Rb1_VHH4 (VHH)
VHH: B23 VHH with Y62D, E76K, I103S, T105R
notes: as for B1
B25: mIL12Rb1_VHH12 (VHH)
VHH: B23 VHH
notes: as for B1
B26: hIL12Rb1_VHH18 (VHH)
VHH: B23 VHH with Y62D, E76K, I103S, T105R
notes: as for B1
B27: mIL12Rb1_VHH5 (VHH)
VHH: QVQLQESGGGSVQAGETLRLSCTVSGFTIDDSEMGWYRQAPGHECELVASGSSDDDTYYVDSVKGRFTISLDNAKNMVYLQMNSLKPEDTAVYYCATGPTYPPKDGDCAHWGQGTQVTVSS
notes: as for B1
B28: hIL12Rb1_VHH17 (VHH)
VHH: QVQLQESGGGSVQAGGFLRLSCVASGYGYCGYDMSWYRQVPGKEREFVALITSDRSVSYEDSVKGRFSISRDNAKNTAYLEMNRLTPDDTAIYYCKTSTAARENNWCRSRYRIASWGQGTQVTVSS
notes: as for B1
B29: hIL12Rb1_VHH5 (VHH)
VHH: B28 VHH with I92V, S115Y
notes: as for B1
B30: hIL12Rb1_VHH13 (VHH)
VHH: B28 VHH with V40A, D54E, S56V, V57I, K75E, A78G, T99A, N104S, N105S, I113V
notes: as for B1
B31: hIL12Rb1_VHH4 (VHH)
VHH: QVQLQESGGGSVQAGGSLRLSCVASGYGYCGYDMSWYRQTPGKEREFVALITSDRIASYEDSVKGRFIISRDNAKNTGYLDMTRVTPDDTAIYYCKTSAAARENSWCRSRYRVASWGQGTQVTVSS
notes: as for B1

Legend:
[1] = molecular target: T1, extracellular domain of mouse IL12RB1 (mIL12Rb1 ECD) (mouse, UniProt Q60837 20-565); assay: periplasmic extract ELISA (PE-ELISA) of phage clones, colorimetric
T1 construct: The immunogen was a fusion of the ECD with the human IgG1 hinge and Fc; also called mIL12Rb1 ECD antigen
T1 sequence: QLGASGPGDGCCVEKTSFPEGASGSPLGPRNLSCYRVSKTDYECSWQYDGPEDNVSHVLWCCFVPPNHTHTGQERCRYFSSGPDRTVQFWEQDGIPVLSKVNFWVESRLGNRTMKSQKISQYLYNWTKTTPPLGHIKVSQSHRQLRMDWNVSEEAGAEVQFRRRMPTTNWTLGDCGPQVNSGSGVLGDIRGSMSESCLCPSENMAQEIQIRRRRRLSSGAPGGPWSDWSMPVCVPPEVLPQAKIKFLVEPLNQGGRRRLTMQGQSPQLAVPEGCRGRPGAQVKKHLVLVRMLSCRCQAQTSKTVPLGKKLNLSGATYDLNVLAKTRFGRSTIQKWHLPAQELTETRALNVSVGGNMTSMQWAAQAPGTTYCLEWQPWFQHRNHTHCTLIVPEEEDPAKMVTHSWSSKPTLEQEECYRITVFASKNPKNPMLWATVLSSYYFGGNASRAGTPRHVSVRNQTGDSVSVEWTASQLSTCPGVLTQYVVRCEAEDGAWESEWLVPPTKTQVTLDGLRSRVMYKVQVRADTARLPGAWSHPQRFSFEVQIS
Outline: (§1)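 VHH domains came from camels immunized in sequence with human and mouse receptor extracellular domain–human IgG1 hinge–Fc fusion proteins. Blood RNA was transcribed, and the approximately 400 bp VHH fragment was cloned in frame with a his-tag into a phagemid in E. coli. The phage library went through multiple rounds of biopanning on the human or mouse extracellular domain. Individual clones were tested by periplasmic extract ELISA in 96-well plates, with selective binding read colorimetrically.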

[2] = molecular target: T2, extracellular domain of human IL12RB1 (hIL12Rb1 ECD) (human, UniProt P42701 24-545); assay: as above
T2 construct: The immunogen was a fusion of the ECD with the human IgG1 hinge and Fc; also called IL12Rβ1; CD212
Outline: as §1

Binder	binding result [1]	binding result [2]
B1	binds	–
B2	–	binds
B3	–	binds
B4	binds	–
B5	–	binds
B6	–	binds
B7	binds	–
B8	binds	–
B9	binds	–
B10	binds	–
B11	–	binds
B12	binds	–
B13	–	binds
B14	–	binds
B15	–	binds
B16	–	binds

Binder	binding result [1]	binding result [2]
B17	binds	–
B18	binds	–
B19	binds	–
B20	binds	–
B21	–	binds
B22	binds	–
B23	–	binds
B24	binds	–
B25	binds	–
B26	–	binds
B27	binds	–
B28	–	binds
B29	–	binds
B30	–	binds
B31	–	binds
